# Source: the Human Domainome abundance scans (Beltran et al. 2025)
# ± gives the uncertainty stated by the source.
# B1: 3'-5' exoribonuclease 1, residues 65 to 114; numbered along this chain, Q8IV48 (parent)
# chain: VYKEIAITNGCINRMSKEELRAKLSEFKLETRGVKDVLKKRLKNYYKKQK
# Variants of: B1
# Assay: abundance fitness (aPCA) (normalised: wild type 0, dead -1); higher = more abundant; growth selection in yeast, the domain comes from the species named
# Details: Homo sapiens
row,Variant,abundance fitness
1,VYKEIAITNGCINRMSKEELRATLSEFKLETRGVKDVLKKRLKNYYKKQK [K23T],-0.172 ± 0.047
2,VYKEIAITNGCINRMSKEELRAKLSEFKLETRGVKDVYKKRLKNYYKKQK [L38Y],-1.05 ± 0.085
3,VYKEIAITNGCINRMSKEELRAKISEFKLETRGVKDVLKKRLKNYYKKQK [L24I],-0.88 ± 0.13
4,VYKEIAITNGCINRMSKEELRAKWSEFKLETRGVKDVLKKRLKNYYKKQK [L24W],-0.902 ± 0.043
5,VYKEIAITNGCINRMSKEELRAKHSEFKLETRGVKDVLKKRLKNYYKKQK [L24H],-0.772 ± 0.083
6,VYKEIAITNGCINRMSKEELRAKKSEFKLETRGVKDVLKKRLKNYYKKQK [L24K],-0.973 ± 0.086
7,VYKEIAITNGCINRMSKEELRAKLSEFKLETRGVKDVLKKRLKNPYKKQK [Y45P],-0.995 ± 0.087
8,VYKEIAKTNGCINRMSKEELRAKLSEFKLETRGVKDVLKKRLKNYYKKQK [I7K],-0.131 ± 0.049
9,VYKENAITNGCINRMSKEELRAKLSEFKLETRGVKDVLKKRLKNYYKKQK [I5N],-0.004 ± 0.045
10,VYKEAAITNGCINRMSKEELRAKLSEFKLETRGVKDVLKKRLKNYYKKQK [I5A],0.007 ± 0.041
11,VYKESAITNGCINRMSKEELRAKLSEFKLETRGVKDVLKKRLKNYYKKQK [I5S],-0.004 ± 0.036
12,VYKEIAITNGCINRMSKEELRAKLSAFKLETRGVKDVLKKRLKNYYKKQK [E26A],-0.202 ± 0.052
13,VYKEIAITNGCINRMSKEELRAKLSDFKLETRGVKDVLKKRLKNYYKKQK [E26D],-0.119 ± 0.061
14,VYKEIAITNGCINRMSKEELRAKLSNFKLETRGVKDVLKKRLKNYYKKQK [E26N],-0.273 ± 0.083
15,VYKEIAITNGCINRMSKEELRAKLSQFKLETRGVKDVLKKRLKNYYKKQK [E26Q],-0.102 ± 0.074
16,VYKEIAITNGCINRMSKEELRAKLSEFKLESRGVKDVLKKRLKNYYKKQK [T31S],-0.088 ± 0.033
17,VYKEIAITNGCINRMSKEELRAKLSEFKLEARGVKDVLKKRLKNYYKKQK [T31A],-0.198 ± 0.042
18,VYKEIAIYNGCINRMSKEELRAKLSEFKLETRGVKDVLKKRLKNYYKKQK [T8Y],-0.49 ± 0.057
19,VYKEIAITNGCINRMSKEELRAKLSEFKEETRGVKDVLKKRLKNYYKKQK [L29E],-0.737 ± 0.068
20,VYKEIAITNGCENRMSKEELRAKLSEFKLETRGVKDVLKKRLKNYYKKQK [I12E],-0.818 ± 0.073
21,VYKEIAITNGCIPRMSKEELRAKLSEFKLETRGVKDVLKKRLKNYYKKQK [N13P],-0.949 ± 0.065
22,VYKEIAITNGCILRMSKEELRAKLSEFKLETRGVKDVLKKRLKNYYKKQK [N13L],-0.914 ± 0.043
23,VYKEIAITNGCINRMSKEELRRKLSEFKLETRGVKDVLKKRLKNYYKKQK [A22R],-0.031 ± 0.038
24,VYKEIAITNGCINRMSKEELRKKLSEFKLETRGVKDVLKKRLKNYYKKQK [A22K],0.057 ± 0.06
25,VYKEIAITNGCINTMSKEELRAKLSEFKLETRGVKDVLKKRLKNYYKKQK [R14T],-0.226 ± 0.045
26,VYKEIAITNGCINRMSKEELRAKLSEFKLETRGVKDVLKKRLKNYYKKYK [Q49Y],-0.065 ± 0.068

row,Variant,abundance fitness
1,VYKEIAITNGCINRMSKEELRAKLSEFKLETRGVKDVLKKRLKNYYKKEK [Q49E],-0.192 ± 0.055
2,VYKEIAITNGCINRMSIEELRAKLSEFKLETRGVKDVLKKRLKNYYKKQK [K17I],-0.329 ± 0.057
3,VYKEIAITNGCINRMSKEELRAKLSEFSLETRGVKDVLKKRLKNYYKKQK [K28S],-0.06 ± 0.042
4,VYKEIAITNGCINRMSKEELRAKLSEFKLETRGVQDVLKKRLKNYYKKQK [K35Q],-0.767 ± 0.075
5,VYKEIAITNGCINRMSKEELRAKLSEFKLETRDVKDVLKKRLKNYYKKQK [G33D],-0.663 ± 0.046
6,VYKEIAITNGCINRMSKEELRAKLSEFKLETRYVKDVLKKRLKNYYKKQK [G33Y],-0.931 ± 0.053
7,VYKEIAITNGCINRMSKEELRAKLSEFKLETRRVKDVLKKRLKNYYKKQK [G33R],-0.739 ± 0.053
8,VYKEIAITNGCINRMSKEEARAKLSEFKLETRGVKDVLKKRLKNYYKKQK [L20A],-0.912 ± 0.05
9,VYKEIAITNGCINRMSKEELRAKLSEFKLETRGVKDVLKWRLKNYYKKQK [K40W],-0.985 ± 0.062
10,VYKEIAITNGCINRMSKEELRAKLSEFKLETRGVKDVLKDRLKNYYKKQK [K40D],-0.741 ± 0.062
11,VYKEIAITNGCINRMSKEELRAKLSEFKLETRGVKNVLKKRLKNYYKKQK [D36N],0.02 ± 0.036
12,VYKEIAITNGCINRMSKEELRAKLSEFKLETRGVKKVLKKRLKNYYKKQK [D36K],0.044 ± 0.054
13,VYKEIAITNGHINRMSKEELRAKLSEFKLETRGVKDVLKKRLKNYYKKQK [C11H],-0.048 ± 0.053
14,VYKEIAITNGTINRMSKEELRAKLSEFKLETRGVKDVLKKRLKNYYKKQK [C11T],0.005 ± 0.044
15,VYKEIAITNGIINRMSKEELRAKLSEFKLETRGVKDVLKKRLKNYYKKQK [C11I],0.007 ± 0.05
16,VYKEIAITNGKINRMSKEELRAKLSEFKLETRGVKDVLKKRLKNYYKKQK [C11K],-0.039 ± 0.049
17,VYKEIAITNGDINRMSKEELRAKLSEFKLETRGVKDVLKKRLKNYYKKQK [C11D],0.067 ± 0.048
18,VYKEIAITNGPINRMSKEELRAKLSEFKLETRGVKDVLKKRLKNYYKKQK [C11P],-0.278 ± 0.047
19,VYKEIAITNGCINRMSKEELRAKLSEMKLETRGVKDVLKKRLKNYYKKQK [F27M],0.026 ± 0.046
20,VYCEIAITNGCINRMSKEELRAKLSEFKLETRGVKDVLKKRLKNYYKKQK [K3C],-0.145 ± 0.057
21,VYKEIAITNGCINRMSKFELRAKLSEFKLETRGVKDVLKKRLKNYYKKQK [E18F],-0.007 ± 0.063
22,VYKEIAITNGCINRMSKCELRAKLSEFKLETRGVKDVLKKRLKNYYKKQK [E18C],0.072 ± 0.047
23,VYKEIAITNGCINRMSKRELRAKLSEFKLETRGVKDVLKKRLKNYYKKQK [E18R],0.04 ± 0.037
24,VYKEIAITNGCINRMSKNELRAKLSEFKLETRGVKDVLKKRLKNYYKKQK [E18N],0.047 ± 0.06
25,VWKEIAITNGCINRMSKEELRAKLSEFKLETRGVKDVLKKRLKNYYKKQK [Y2W],-0.069 ± 0.083
26,VMKEIAITNGCINRMSKEELRAKLSEFKLETRGVKDVLKKRLKNYYKKQK [Y2M],0.012 ± 0.065
